Data: patent publication US5532348 (United States of America, dated 1996)

How the values were obtained:
GST (with no fusion) = GST (with no fusion) (Schistosoma japonicum (Blood fluke), UniProt P08515 = GST); test: GST pull-down of 35S-labelled translate, no p53
GST fusion to HPV 11 E6 = target: T1, GST fusion to HPV 11 E6 (human papillomavirus type 11, UniProt P04019); test: GST pull-down of 35S-labelled translate, no p53
T1 sequence: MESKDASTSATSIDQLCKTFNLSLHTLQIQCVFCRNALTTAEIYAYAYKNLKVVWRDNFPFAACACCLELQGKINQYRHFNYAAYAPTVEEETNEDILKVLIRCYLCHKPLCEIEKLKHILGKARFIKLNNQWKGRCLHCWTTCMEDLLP

[1] = target: T2, HPV11 E6, wheat germ extract translated (human papillomavirus type 11, UniProt P04019); test: GST-E6-AP fusion on glutathione-Sepharose, 35S-labelled E6
T2 sequence: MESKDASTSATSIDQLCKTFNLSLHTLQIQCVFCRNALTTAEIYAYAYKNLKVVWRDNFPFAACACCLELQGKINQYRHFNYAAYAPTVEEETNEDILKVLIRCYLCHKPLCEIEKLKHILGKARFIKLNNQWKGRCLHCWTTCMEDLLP

[2] = target: GST-p53 (glutathione S-transferase fusion of wild-type p53) (Homo sapiens (Human), UniProt P04637); test: GST-p53 pull-down of 35S-labelled E6-AP variant in the presence of HPV16 E6

B1: 95 kd in vitro translated form of E6-AP (amino acids 37 to 865 of SEQ ID NO:1) (other)
chain: EACTNEFCASCPTFLRMDNKAAAIKALELYKINAKLCDPHPSKKGASSAYLENSKGAPNNSCSEIKMNKKGARIDFKDVTYLTEEKVYEILELCREREDYSPLIRVIGRVFSSAEALVQSFRKVKQHTKEELKSLQAKDEDKDEDEKEKAACSAAAMEEDSEEASSSRIGDSSQGDNNLQKLGPDDVSVDIDAIRRVYTRLLSNEKIETAFLNALVYLSPNVECDLTYHNVYSRDPNYLNLFIIGMENRNLHSPEYLEMALPLFCKAMSKLPLAAQGKLIRLWSKYNADQIRRMMETFQQLITYKVISNEFNSRNLVNDDDAIVAASKCLKMVYYANVVGGEVDTNHNEEDDEEPIPESSELTLQELLGEERRNKKGLRVDPLETELGVKTLDCRKPLIPFEEFINEPLNEVLEMDKDYTFFKVETENKFSFMTCPFILNAVTKNLGLYYDNRIRMYSERRITVLTSLVQGQQLNPYLRLKVRRKHIIDDALVRLEMIAMENPADLKKQLYVEFEGEQGVDEGGVSKEFFQLVVEEIFNPDIGMFTYDESTKLFWFNPSSFETEGQFTLIGIVLGLAIYNNCILDVHGPMVVYRKLMGKKGTFRDLGDSHPVLYQSLKDLLEYVGNVEDDMMITFQISQTNLFQNPMMYDLKENGDKIPITNENRKEFVNLYSDYILNKSVEKQFKAFRRGRHMVTNESPLKYLFRPEEIELLICGSRNLDFQALEETTEYDGGYTRDSVLIREFWEIVHSFTDEQKRLFLQFTTGRDRAPVGGLGKLKMIIAKNGPDTERLPTSHTCFNVLLLPEYSSKEKLKERLLKAITYAKGFGM
B1: no binding (GST (with no fusion)); no binding (GST fusion to HPV 11 E6).

B2: GST-75 kDa E6-AP fusion protein (amino acids 212-865 of SEQ ID NO:1) (other)
chain: DNNLQKLGPDDVSVDIDAIRRVYTRLLSNEKIETAFLNALVYLSPNVECDLTYHNVYSRDPNYLNLFIIGMENRNLHSPEYLEMALPLFCKAMSKLPLAAQGKLIRLWSKYNADQIRRMMETFQQLITYKVISNEFNSRNLVNDDDAIVAASKCLKMVYYANVVGGEVDTNHNEEDDEEPIPESSELTLQELLGEERRNKKGLRVDPLETELGVKTLDCRKPLIPFEEFINEPLNEVLEMDKDYTFFKVETENKFSFMTCPFILNAVTKNLGLYYDNRIRMYSERRITVLTSLVQGQQLNPYLRLKVRRKHIIDDALVRLEMIAMENPADLKKQLYVEFEGEQGVDEGGVSKEFFQLVVEEIFNPDIGMFTYDESTKLFWFNPSSFETEGQFTLIGIVLGLAIYNNCILDVHGPMVVYRKLMGKKGTFRDLGDSHPVLYQSLKDLLEYVGNVEDDMMITFQISQTNLFQNPMMYDLKENGDKIPITNENRKEFVNLYSDYILNKSVEKQFKAFRRGRHMVTNESPLKYLFRPEEIELLICGSRNLDFQALEETTEYDGGYTRDSVLIREFWEIVHSFTDEQKRLFLQFTTGRDRAPVGGLGKLKMIIAKNGPDTERLPTSHTCFNVLLLPEYSSKEKLKERLLKAITYAKGFGM
B2: no binding [1].

B3: GST-E6-AP fusion protein with amino acids 371 to 440 of SEQ ID NO:1 (SEQ ID NO:2) (other)
chain: ANVVGGEVDTNHNEEDDEEPIPESSELTLQELLGEERRNKKGLRVDPLETELGVKTLDCRKPLIPFEEFI
B3: no binding [1].

B4: E6-AP N-terminally truncated form beginning at amino acid 322 (other)
chain: YNADQIRRMMETFQQLITYKVISNEFNSRNLVNDDDAIVAASKCLKMVYYANVVGGEVDTNHNEEDDEEPIPESSELTLQELLGEERRNKKGLRVDPLETELGVKTLDCRKPLIPFEEFINEPLNEVLEMDKDYTFFKVETENKFSFMTCPFILNAVTKNLGLYYDNRIRMYSERRITVLTSLVQGQQLNPYLRLKVRRKHIIDDALVRLEMIAMENPADLKKQLYVEFEGEQGVDEGGVSKEFFQLVVEEIFNPDIGMFTYDESTKLFWFNPSSFETEGQFTLIGIVLGLAIYNNCILDVHGPMVVYRKLMGKKGTFRDLGDSHPVLYQSLKDLLEYVGNVEDDMMITFQISQTNLFQNPMMYDLKENGDKIPITNENRKEFVNLYSDYILNKSVEKQFKAFRRGRHMVTNESPLKYLFRPEEIELLICGSRNLDFQALEETTEYDGGYTRDSVLIREFWEIVHSFTDEQKRLFLQFTTGRDRAPVGGLGKLKMIIAKNGPDTERLPTSHTCFNVLLLPEYSSKEKLKERLLKAITYAKGFGM
B4: no binding [2].
